# Measured values: US20110118131A1 (published 2011)
# B1: XPA23 Fab, heavy chain V50N (Fab, V domains shown)
# VH: EVQLLESGGGLVQPGGSLRLSCAASGFTFSKYFMFWVRQAPGKGLEWVSNISPSGGMTRYADSVKGRFTISRDNSKNTLYLQMNSLRAEDTAVYYCARVGYGGNSDYWGQGTLVTVSS
# VL: DIQMTQSPSSVSASVGDRLTIICRASQDINRWLAWYQQTPGNAPKLLIHSATSLQSGVPSRFSGSGSGTDFTLTINSLQPEDFATYYCQQADSFPLTFGGGTKVEIK
# B2: XPA23 Fab, heavy chain D106Y (Fab, V domains shown)
# VH: EVQLLESGGGLVQPGGSLRLSCAASGFTFSKYFMFWVRQAPGKGLEWVSVISPSGGMTRYADSVKGRFTISRDNSKNTLYLQMNSLRAEDTAVYYCARVGYGGNSYYWGQGTLVTVSS
# VL: DIQMTQSPSSVSASVGDRLTIICRASQDINRWLAWYQQTPGNAPKLLIHSATSLQSGVPSRFSGSGSGTDFTLTINSLQPEDFATYYCQQADSFPLTFGGGTKVEIK
# B3: XPA23 Fab, heavy chain D106S (Fab, V domains shown)
# VH: EVQLLESGGGLVQPGGSLRLSCAASGFTFSKYFMFWVRQAPGKGLEWVSVISPSGGMTRYADSVKGRFTISRDNSKNTLYLQMNSLRAEDTAVYYCARVGYGGNSSYWGQGTLVTVSS
# VL: DIQMTQSPSSVSASVGDRLTIICRASQDINRWLAWYQQTPGNAPKLLIHSATSLQSGVPSRFSGSGSGTDFTLTINSLQPEDFATYYCQQADSFPLTFGGGTKVEIK
# B4: XPA23 Fab, heavy chain D106Q (Fab, V domains shown)
# VH: EVQLLESGGGLVQPGGSLRLSCAASGFTFSKYFMFWVRQAPGKGLEWVSVISPSGGMTRYADSVKGRFTISRDNSKNTLYLQMNSLRAEDTAVYYCARVGYGGNSQYWGQGTLVTVSS
# VL: DIQMTQSPSSVSASVGDRLTIICRASQDINRWLAWYQQTPGNAPKLLIHSATSLQSGVPSRFSGSGSGTDFTLTINSLQPEDFATYYCQQADSFPLTFGGGTKVEIK
# B5: XPA23 Fab, heavy chain F33H (Fab, V domains shown)
# VH: EVQLLESGGGLVQPGGSLRLSCAASGFTFSKYHMFWVRQAPGKGLEWVSVISPSGGMTRYADSVKGRFTISRDNSKNTLYLQMNSLRAEDTAVYYCARVGYGGNSDYWGQGTLVTVSS
# VL: DIQMTQSPSSVSASVGDRLTIICRASQDINRWLAWYQQTPGNAPKLLIHSATSLQSGVPSRFSGSGSGTDFTLTINSLQPEDFATYYCQQADSFPLTFGGGTKVEIK
# B6: XPA23 Fab, heavy chain D106H (Fab, V domains shown)
# VH: EVQLLESGGGLVQPGGSLRLSCAASGFTFSKYFMFWVRQAPGKGLEWVSVISPSGGMTRYADSVKGRFTISRDNSKNTLYLQMNSLRAEDTAVYYCARVGYGGNSHYWGQGTLVTVSS
# VL: DIQMTQSPSSVSASVGDRLTIICRASQDINRWLAWYQQTPGNAPKLLIHSATSLQSGVPSRFSGSGSGTDFTLTINSLQPEDFATYYCQQADSFPLTFGGGTKVEIK
# B7: XPA23 Fab, heavy chain F33K (Fab, V domains shown)
# VH: EVQLLESGGGLVQPGGSLRLSCAASGFTFSKYKMFWVRQAPGKGLEWVSVISPSGGMTRYADSVKGRFTISRDNSKNTLYLQMNSLRAEDTAVYYCARVGYGGNSDYWGQGTLVTVSS
# VL: DIQMTQSPSSVSASVGDRLTIICRASQDINRWLAWYQQTPGNAPKLLIHSATSLQSGVPSRFSGSGSGTDFTLTINSLQPEDFATYYCQQADSFPLTFGGGTKVEIK
# B8: XPA23 Fab, heavy chain D106E (Fab, V domains shown)
# VH: EVQLLESGGGLVQPGGSLRLSCAASGFTFSKYFMFWVRQAPGKGLEWVSVISPSGGMTRYADSVKGRFTISRDNSKNTLYLQMNSLRAEDTAVYYCARVGYGGNSEYWGQGTLVTVSS
# VL: DIQMTQSPSSVSASVGDRLTIICRASQDINRWLAWYQQTPGNAPKLLIHSATSLQSGVPSRFSGSGSGTDFTLTINSLQPEDFATYYCQQADSFPLTFGGGTKVEIK
# B9: XPA23 Fab, heavy chain F33D (Fab, V domains shown)
# VH: EVQLLESGGGLVQPGGSLRLSCAASGFTFSKYDMFWVRQAPGKGLEWVSVISPSGGMTRYADSVKGRFTISRDNSKNTLYLQMNSLRAEDTAVYYCARVGYGGNSDYWGQGTLVTVSS
# VL: DIQMTQSPSSVSASVGDRLTIICRASQDINRWLAWYQQTPGNAPKLLIHSATSLQSGVPSRFSGSGSGTDFTLTINSLQPEDFATYYCQQADSFPLTFGGGTKVEIK
# B10: XPA23 Fab, heavy chain D106N (Fab, V domains shown)
# VH: EVQLLESGGGLVQPGGSLRLSCAASGFTFSKYFMFWVRQAPGKGLEWVSVISPSGGMTRYADSVKGRFTISRDNSKNTLYLQMNSLRAEDTAVYYCARVGYGGNSNYWGQGTLVTVSS
# VL: DIQMTQSPSSVSASVGDRLTIICRASQDINRWLAWYQQTPGNAPKLLIHSATSLQSGVPSRFSGSGSGTDFTLTINSLQPEDFATYYCQQADSFPLTFGGGTKVEIK
# B11: XPA23 Fab, heavy chain D106K (Fab, V domains shown)
# VH: EVQLLESGGGLVQPGGSLRLSCAASGFTFSKYFMFWVRQAPGKGLEWVSVISPSGGMTRYADSVKGRFTISRDNSKNTLYLQMNSLRAEDTAVYYCARVGYGGNSKYWGQGTLVTVSS
# VL: DIQMTQSPSSVSASVGDRLTIICRASQDINRWLAWYQQTPGNAPKLLIHSATSLQSGVPSRFSGSGSGTDFTLTINSLQPEDFATYYCQQADSFPLTFGGGTKVEIK
# B12: XPA23 Fab, heavy chain D106F (Fab, V domains shown)
# VH: EVQLLESGGGLVQPGGSLRLSCAASGFTFSKYFMFWVRQAPGKGLEWVSVISPSGGMTRYADSVKGRFTISRDNSKNTLYLQMNSLRAEDTAVYYCARVGYGGNSFYWGQGTLVTVSS
# VL: DIQMTQSPSSVSASVGDRLTIICRASQDINRWLAWYQQTPGNAPKLLIHSATSLQSGVPSRFSGSGSGTDFTLTINSLQPEDFATYYCQQADSFPLTFGGGTKVEIK
# B13: XPA23 Fab, heavy chain D106R (Fab, V domains shown)
# VH: EVQLLESGGGLVQPGGSLRLSCAASGFTFSKYFMFWVRQAPGKGLEWVSVISPSGGMTRYADSVKGRFTISRDNSKNTLYLQMNSLRAEDTAVYYCARVGYGGNSRYWGQGTLVTVSS
# VL: DIQMTQSPSSVSASVGDRLTIICRASQDINRWLAWYQQTPGNAPKLLIHSATSLQSGVPSRFSGSGSGTDFTLTINSLQPEDFATYYCQQADSFPLTFGGGTKVEIK
# B14: XPA23 Fab, heavy chain D106W (Fab, V domains shown)
# VH: EVQLLESGGGLVQPGGSLRLSCAASGFTFSKYFMFWVRQAPGKGLEWVSVISPSGGMTRYADSVKGRFTISRDNSKNTLYLQMNSLRAEDTAVYYCARVGYGGNSWYWGQGTLVTVSS
# VL: DIQMTQSPSSVSASVGDRLTIICRASQDINRWLAWYQQTPGNAPKLLIHSATSLQSGVPSRFSGSGSGTDFTLTINSLQPEDFATYYCQQADSFPLTFGGGTKVEIK
# B15: XPA23 Fab, heavy chain F33E (Fab, V domains shown)
# VH: EVQLLESGGGLVQPGGSLRLSCAASGFTFSKYEMFWVRQAPGKGLEWVSVISPSGGMTRYADSVKGRFTISRDNSKNTLYLQMNSLRAEDTAVYYCARVGYGGNSDYWGQGTLVTVSS
# VL: DIQMTQSPSSVSASVGDRLTIICRASQDINRWLAWYQQTPGNAPKLLIHSATSLQSGVPSRFSGSGSGTDFTLTINSLQPEDFATYYCQQADSFPLTFGGGTKVEIK
# Molecular target: T1, IL-1beta (UniProt P01584 117-269)
# T1 construct: also called IL-1β
# Assay: Biacore
Binder,fold difference in affinity vs parental [fold],binding result
B1,0.03,–
B2,–,no binding
B3,0.03,–
B4,0.02,–
B5,–,no binding
B6,0.02,–
B7,0.85,–
B8,0.04,–
B9,0.92,–
B10,0.07,–
B11,0.04,–
B12,–,no binding
B13,0.06,–
B14,–,no binding
B15,0.86,–
